Test results reported in publication PMC6548133 (The Journal of Cell Biology, 2019).

B1: human Rap1 isoform Rap1b (residues 1–167) (natural protein)
chain: MREYKLVVLGSGGVGKSALTVQFVQGIFVEKYDPTIEDSYRKQVEVDAQQCMLEILDTAGTEQFTAMRDLYMKNGQGFALVYSITAQSTFNDLQDLREQILRVKDTDDVPMILVGNKCDLEDERVVGKEQGQNLARQWNNCAFLESSAKSKINVNEIFYDLVRQINR

How the values were obtained:
[1] = biological target: murine talin1 head domain, residues 1–400 (THD) (murine, UniProt P26039 1-400); test: NMR titration
[2] = biological target: B1; test: NMR titration

murine talin1 head domain, residues 1–400 (THD), sequence (P26039 1-400): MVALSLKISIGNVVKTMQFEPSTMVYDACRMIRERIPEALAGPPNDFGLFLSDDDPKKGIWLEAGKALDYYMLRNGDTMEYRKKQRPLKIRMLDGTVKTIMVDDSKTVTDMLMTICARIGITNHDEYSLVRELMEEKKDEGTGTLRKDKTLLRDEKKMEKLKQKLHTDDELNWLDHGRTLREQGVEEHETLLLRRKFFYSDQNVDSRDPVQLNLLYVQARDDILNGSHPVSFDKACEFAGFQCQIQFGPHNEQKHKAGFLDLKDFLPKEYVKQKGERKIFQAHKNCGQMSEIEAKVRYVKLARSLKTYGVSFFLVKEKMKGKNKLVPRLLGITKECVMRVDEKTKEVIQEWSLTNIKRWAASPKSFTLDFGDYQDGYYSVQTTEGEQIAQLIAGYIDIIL

| Binder | binding result [1] | binding result [2] |
| --- | --- | --- |
| B1 | binds |  |
| talin1 F1(ΔL), residues 84–196 Δ141–170 (F1 Δloop) (domain or fragment) KQRPLKIRMLDGTVKTIMVDDSKTVTDMLMTICARIGITNHDEYSLVRELMEEKKDELNWLDHGRTLREQGVEEHETLLLRRK |  | binds |
